Experimental data: patent US20240132615A1 (ICHNOS SCIENCES, published 2024)

How the values were obtained:
[1] = target: T1, Biotinylated Human CD38 Protein, Avitag, His Tag (Acrobiosystems CD8-H82E7) (human, UniProt P28907 43-300, biotinylated); assay: SPR, Fab as analyte, biotin-captured human CD38
T1 construct: bought protein; also called biotinylated recombinant human CD38 protein; human CD38-avi-his

[2] = target: T2, recombinant cynomolgus monkey CD38-ECD-C-his protein (cynomolgus monkey, UniProt Q5VAN0 45-301); assay: SPR, Fab as analyte, captured cynomolgus CD38-his
T2 construct: made in house; Q5VAN0 residues 43-301 (residue 44 deleted) with C-terminal 6-His; also called cynomolgus monkey CD38-C-His; recombinant cynomolgus monkey CD38 protein

[3] = target: T3, recombinant human BCMA protein (Acrobiosystems BCA-H522y) (human, UniProt Q02223 1-54); assay: SPR, Fab as analyte, immobilised human BCMA, 1:1 Langmuir
T3 construct: bought protein
T3 sequence (looked up): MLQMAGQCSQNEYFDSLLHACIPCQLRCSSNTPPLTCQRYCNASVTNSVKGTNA

[4] = target: T4, human BCMA on cells (NCI-H929, NCI-H929 CD38 KO, MOLP-8) (human, UniProt Q02223 1-184); assay: flow cytometry, NCI-H929 cells, one-site fit
T4 construct: whole, on cells; endogenous BCMA of myeloma cell lines
T4 sequence (looked up): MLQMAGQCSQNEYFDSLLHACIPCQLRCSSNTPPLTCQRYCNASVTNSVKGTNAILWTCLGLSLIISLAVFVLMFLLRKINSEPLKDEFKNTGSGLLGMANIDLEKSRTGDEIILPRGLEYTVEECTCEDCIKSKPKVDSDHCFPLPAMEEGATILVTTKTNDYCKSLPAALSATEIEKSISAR

[5] = target: T5, recombinant human BCMA Fc fusion protein (Acrobiosystems BC7-H5254 / BCA-H5254) (human, UniProt Q02223 1-54); assay: SPR, Fab as analyte, captured human BCMA-Fc
T5 construct: also called recombinant BCMA-Fc protein; not shown: Fc of the bought fusion protein, not described
T5 sequence (looked up): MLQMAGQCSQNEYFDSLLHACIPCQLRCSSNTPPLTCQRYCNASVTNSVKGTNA

[6] = target: T6, recombinant cynomolgus monkey BCMA Fc fusion protein (Acrobiosystems BCA-C5253) (cynomolgus monkey, UniProt A0A2K5UD97 1-53); assay: SPR, Fab as analyte, captured cynomolgus BCMA-Fc
T6 construct: bought protein; not shown: Fc of the bought fusion protein, not described
T6 sequence (A0A2K5UD97 entry or part of it): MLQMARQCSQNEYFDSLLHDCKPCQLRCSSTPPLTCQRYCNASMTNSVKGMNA

[7] = target: T4, human BCMA on cells (NCI-H929, NCI-H929 …); assay: flow cytometry, NCI-H929 cells

Row | Binder | Kd [1] | Kd [2] | Kd [3] | Kd [4] | Kd [5] | Kd [6] | Maximum binding (RFI) [7]
1 | Anti-CD38-B3-PP11-A2 FAB (Fab, V domains shown, Fab) VH: QVQLVQSGAEVKKPGSSVKVSCKASGQTTPMYSISWVRQAPGQGLEWMGRIIPTGANANYAQKFQGRVTITADESTSTAYMELSSLRSEDTAVYYCARSWPSLGSGWFDIWGQGTLVTVSS VL: not shown | 38.4 nM | 62.5 nM | – | – | – | – | –
2 | Anti-CD38-B3-PP11-C11 FAB (Fab, V domains shown, Fab; also called anti-CD38-B3-C11; B3-C11) VH: QVQLVQSGAEVKKPGSSVKVSCKASGGDFTLYSISWVRQAPGQGLEWMGRIIPTGANANYAQKFQGRVTITADESTSTAYMELSSLRSEDTAVYYCARSTPTYGSGWFDIWGQGTLVTVSS VL: not shown | 5.4 nM | 25 nM | – | – | – | – | –
3 | Anti-CD38-B3-PP11-E11 FAB (Fab, V domains shown, Fab) VH: QVQLVQSGAEVKKPGSSVKVSCKASGGDFTLYSISWVRQAPGQGLEWMGRIIPTGANANYAQKFQGRVTITADESTSTAYMELSSLRSEDTAVYYCARSWPSYGKGWFDIWGQGTLVTVSS VL: not shown | 2 nM | 8.9 nM | – | – | – | – | –
4 | Anti-CD38-B3-PP11-H10 FAB (Fab, V domains shown, Fab) VH: QVQLVQSGAEVKKPGSSVKVSCKASGGDFTLYSISWVRQAPGQGLEWMGRIIPTGANANYAQKFQGRVTITADESTSTAYMELSSLRSEDTAVYYCARSWPHYGSGWFDIWGQGTLVTVSS VL: not shown | 6.2 nM | 22.7 nM | – | – | – | – | –
5 | Anti-CD38-B3-PP11-E1 FAB (Fab, V domains shown, Fab) VH: QVQLVQSGAEVKKPGSSVKVSCKASGQHKRVYSISWVRQAPGQGLEWMGRIIPTGANANYAQKFQGRVTITADESTSTAYMELSSLRSEDTAVYYCARSWPSLGSGWFDIWGQGTLVTVSS VL: not shown | 10.5 nM | 26.3 nM | – | – | – | – | –
6 | Anti-CD38-B3-PP11-H1a FAB (Fab, V domains shown, Fab) VH: QVQLVQSGAEVKKPGSSVKVSCKASGQNERMYSISWVRQAPGQGLEWMGRIIPTGANANYAQKFQGRVTITADESTSTAYMELSSLRSEDTAVYYCARSWPSLGSGWFDIWGQGTLVTVSS VL: not shown | 15.3 nM | 17.9 nM | – | – | – | – | –
7 | Anti-CD38-B3-PP11-D1b FAB (Fab, V domains shown, Fab) VH: QVQLVQSGAEVKKPGSSVKVSCKASGIQTRWYSISWVRQAPGQGLEWMGRIIPTGANANYAQKFQGRVTITADESTSTAYMELSSLRSEDTAVYYCARSWPSLGSGWFDIWGQGTLVTVSS VL: not shown | 5.8 nM | 14.6 nM | – | – | – | – | –
8 | Anti-CD38-B3-PP11-D1a FAB (Fab, V domains shown, Fab) VH: QVQLVQSGAEVKKPGSSVKVSCKASGMQTRWYSISWVRQAPGQGLEWMGRIIPTGANANYAQKFQGRVTITADESTSTAYMELSSLRSEDTAVYYCARSWPSLGSGWFDIWGQGTLVTVSS VL: not shown | 10 nM | 9.6 nM | – | – | – | – | –
9 | Anti-CD38-B3-PP11-D11a FAB (Fab, V domains shown, Fab) VH: QVQLVQSGAEVKKPGSSVKVSCKASGGDFTLYSISWVRQAPGQGLEWMGRIIPTGANANYAQKFQGRVTITADESTSTAYMELSSLRSEDTAVYYCARSWPILGNGWFDIWGQGTLVTVSS VL: not shown | 8.2 nM | 17.3 nM | – | – | – | – | –
10 | anti-BCMA-UCP01-A10 FAB (Fab, V domains shown, Fab) VH: QVQLVQSGAEVKKPGSSVKVSCKASGYVFSDHIISWVRQAPGQGLEWMGGIIPHGGAPTYAQKFQGRVTITADESTSTAYMELSSLRSEDTAVYYCARDLFDYYPQGFDYWGQGTLVTVSS VL: not shown | – | – | 214 nM | – | – | – | –
11 | Anti-BCMA-D3-MP04-B11a FAB (Fab, V domains shown, Fab) VH: EVQLVESGGGLIQPGGSLRLSCAASGFIFSHYEMNWVRQAPGKGLEWVSAIGQVDGEVYADSVKGRFTISRDNSKNTLYLQMNSLRAEDTAVYYCARVPYSYSGYSGADIWGQGTLVTVSS VL: not shown | – | – | – | 6.03 nM | 0.14 nM | 0.24 nM | 23700 RFI
12 | Anti-BCMA-D3-MP04-F3 FAB (Fab, V domains shown, Fab) VH: EVQLVESGGGLIQPGGSLRLSCAASGFIFSHYEMNWVRQAPGKGLEWVSAIGQVGNTVYADSVKGRFTISRDNSKNTLYLQMNSLRAEDTAVYYCARVPYSYSGYSGADIWGQGTLVTVSS VL: not shown | – | – | – | 7.12 nM | 0.64 nM | 3.03 nM | 19500 RFI
13 | Anti-BCMA-D3-MP05-F4 FAB (Fab, V domains shown, Fab) VH: EVQLVESGGGLIQPGGSLRLSCAASGFIFSHYEMNWVRQAPGKGLEWVSAIGQGGNTVYADSVKGRFTISRDNSKNTLYLQMNSLRAEDTAVYYCARVPYSYLGYQGADIWGQGTLVTVSS VL: not shown | – | – | – | 11.8 nM | 0.78 nM | 2.83 nM | 29900 RFI
14 | Anti-BCMA-D3-MP04-B11b FAB (Fab, V domains shown, Fab) VH: EVQLVESGGGLIQPGGSLRLSCAASGFIFSHYEMNWVRQAPGKGLEWVSAIGQVDAEVYADSVKGRFTISRDNSKNTLYLQMNSLRAEDTAVYYCARVPYSYSGYSGADIWGQGTLVTVSS VL: not shown | – | – | – | 14.1 nM | 0.52 nM | 0.79 nM | 23300 RFI
15 | Anti-BCMA-D3-MP04-G7 FAB (Fab, V domains shown, Fab) VH: EVQLVESGGGLIQPGGSLRLSCAASGFIFSHYEMNWVRQAPGKGLEWVSAIGQRDGTVYADSVKGRFTISRDNSKNTLYLQMNSLRAEDTAVYYCARVPYSYSGYSGADIWGQGTLVTVSS VL: not shown | – | – | – | 5.82 nM | 0.08 nM | 0.14 nM | 27000 RFI
16 | Anti-BCMA-D3-MP04-B11c FAB (Fab, V domains shown, Fab) VH: EVQLVESGGGLIQPGGSLRLSCAASGFIFSHYEMNWVRQAPGKGLEWVSAIGQVEGEVYADSVKGRFTISRDNSKNTLYLQMNSLRAEDTAVYYCARVPYSYSGYSGADIWGQGTLVTVSS VL: not shown | – | – | – | 3.9 nM | 0.16 nM | 0.34 nM | 22900 RFI
17 | Anti-CD38-E2-UCP01-A10 FAB (Fab, V domains shown, Fab) VH: QVQLVQSGAEVKKPGSSVKVSCKASGLPDATYAIGWVRQAPGQGLEWMGRIIPVFGSAHYAQKFQGRVTITADESTSTAYMELSSLRSEDTAVYYCARGLGYYLYSSYYFDIWGQGTLVTVSS VL: not shown | 9.4 nM | 8.6 nM | – | – | – | – | –
18 | Anti-CD38-E2-UCP02-D6 FAB (Fab, V domains shown, Fab) VH: QVQLVQSGAEVKKPGSSVKVSCKASGGSFSNYAIGWVRQAPGQGLEWMGRIIPRLDAEHYAQKFQGRVTITADESTSTAYMELSSLRSEDTAVYYCARGLGYYLYSSYYFDIWGQGTLVTVSS VL: not shown | 4.9 nM | 1.1 nM | – | – | – | – | –
19 | Anti-CD38-E2-UCP02-A5 FAB (Fab, V domains shown, Fab; also called anti-CD38-E2-A5; E2-A5) VH: QVQLVQSGAEVKKPGSSVKVSCKASGGSFSNYAIGWVRQAPGQGLEWMGRIIPDLGAAHYAQKFQGRVTITADESTSTAYMELSSLRSEDTAVYYCARGLGYYLYSSYYFDIWGQGTLVTVSS VL: not shown | 23.6 nM | 4.4 nM | – | – | – | – | –
20 | Anti-CD38-E2-UCP02-G8 FAB (Fab, V domains shown, Fab) VH: QVQLVQSGAEVKKPGSSVKVSCKASGGSFSNYAIGWVRQAPGQGLEWMGRIIPALGGVHYAQKFQGRVTITADESTSTAYMELSSLRSEDTAVYYCARGLGYYLYSSYYFDIWGQGTLVTVSS VL: not shown | 5.2 nM | 4.2 nM | – | – | – | – | –
21 | Anti-CD38-E2-UCP02-E7 FAB (Fab, V domains shown, Fab) VH: QVQLVQSGAEVKKPGSSVKVSCKASGGSFSNYAIGWVRQAPGQGLEWMGRIIPALAATHYAQKFQGRVTITADESTSTAYMELSSLRSEDTAVYYCARGLGYYLYSSYYFDIWGQGTLVTVSS VL: not shown | 2.2 nM | 1.8 nM | – | – | – | – | –
22 | Anti-CD38-E2-UCP02-F8 FAB (Fab, V domains shown, Fab) VH: QVQLVQSGAEVKKPGSSVKVSCKASGGSFSNYAIGWVRQAPGQGLEWMGRIIPSLDAGHYAQKFQGRVTITADESTSTAYMELSSLRSEDTAVYYCARGLGYYLYSSYYFDIWGQGTLVTVSS VL: not shown | 17.6 nM | 24.5 nM | – | – | – | – | –
23 | Anti-CD38-E2-UCP02-F3 FAB (Fab, V domains shown, Fab) VH: QVQLVQSGAEVKKPGSSVKVSCKASGGSFSNYAIGWVRQAPGQGLEWMGRIIPVLDAAHYAQKFQGRVTITADESTSTAYMELSSLRSEDTAVYYCARGLGYYLYSSYYFDIWGQGTLVTVSS VL: not shown | 3.5 nM | 2.4 nM | – | – | – | – | –
